Results: patent US20230192903A1 (published 2023)

B1: bispecific antibody CS2 (bispecific antibody, human IgG1, kappa)
light: DIVMTQSPSSLTVTAGEKVTMSCKSSQSLLNSGNQKNYLTWYQQKPGQPPKLLIYWASTRESGVPDRFTGSGSGTDFTLTISSVQAEDLAVYYCQNDYSYPFTFGSGTKLEIKRTVAAPSVFIFPPSDEQLKSGTASVVCLLNNFYPREAKVQWKVDNALQSGNSQESVTEQDSKDSTYSLSSTLTLSKADYEKHKVYACEVTHQGLSSPVTKSFNRGEC
heavy 1: QVQLQQPGAELVRPGASVKLSCKASGYTFTSYWINWVKQRPGQGLEWIGNIYPSDSYTNYNQKFKDKATLTVDKSSSTAYMQLSSPTSEDSAVYYCTRSWRGNSFDYWGQGTTLTVSSASTKGPSVFPLAPSSKSTSGGTAALGCLVKDYFPEPVTVSWNSGALTSGVHTFPAVLQSSGLYSLSSVVTVPSSSLGTQTYICNVNHKPSNTKVDKKVEPKSCDKTHTCPPCPAPPVAGPSVFLFPPKPKDTLMISRTPEVTCVVVDVSHEAPEVQFNWYVDGVEVHNAKTKPREEQFNSTFRVVSVLTVVHQDWLNGKEYKCKVSNKGLPAPIEKTISKTKGQPREPQVYTLPPCRDELTKNQVSLWCLVKGFYPSDIAVEWESNGQPENNYKTTPPVLDSDGSFFLYSKLTVDKSRWQQGNVFSCSVMHEALHNHYTQKSLSLSPGK
heavy 2: QVQLQQPGAELVRPGASVKLSCKASGYTFTSYWINWVKQRPGQGLEWIGNIYPSDSYTNYNQKFKDKATLTVDKSSSTAYMQLSSPTSEDSAVYYCTRSWRGNSFDYWGQGTTLTVSSASTKGPSVFPLAPSSKSTSGGTAALGCLVKDYFPEPVTVSWNSGALTSGVHTFPAVLQSSGLYSLSSVVTVPSSSLGTQTYICNVNHKPSNTKVDKKVEPKSCDKTHTAPAPAPAPAPAPAPAPQVQLVESGGGVVQPGRSLRLSCAASGFTFSTYAMNWVRQAPGKGLEWVARIRSKYNNYATYYADSVKDRFTISRDDSKNTLYLQMNSLRAEDTAVYYCARHGNFGNSYVSWFAYWGQGTLVTVSSGGGGSGGGGSGGGGSQTVVTQEPSLTVSPGGTVTLTCRSSTGAVTTSNYANWVQQKPGQAPRGLIGGTNKRAPGVPARFSGSLLGGKAALTLSGVQPEDEAEYYCALWYSNLWVFGGGTKVEIKGGGGSDKTHTCPPCPAPPVAGPSVFLFPPKPKDTLMISRTPEVTCVVVDVSHEAPEVQFNWYVDGVEVHNAKTKPREEQFNSTFRVVSVLTVVHQDWLNGKEYKCKVSNKGLPAPIEKTISKTKGQPREPQVCTLPPSRDELTKNQVSLSCAVKGFYPSDIAVEWESNGQPENNYKTTPPVLDSDGSFFLVSKLTVDKSRWQQGNVFSCSVMHEALHNHYTQKSLSLSPGK
notes: CSBODY structure: two 175D10 Fab arms; second heavy chain (first heavy entry) and first heavy chain with anti-CD3 scFv (2a5) between CH1 and Fc2
B2: bispecific antibody CS9 (bispecific antibody, human IgG1, kappa)
light: DIVMTQSPSSLTVTAGEKVTMSCKSSQSLLNSGNQKNYLTWYQQKPGQPPKLLIYWASTRESGVPDRFTGSGSGTDFTLTISSVQAEDLAVYYCQNDYSYPFTFGSGTKLEIKRTVAAPSVFIFPPSDEQLKSGTASVVCLLNNFYPREAKVQWKVDNALQSGNSQESVTEQDSKDSTYSLSSTLTLSKADYEKHKVYACEVTHQGLSSPVTKSFNRGEC
heavy 1: QVQLQQPGAELVRPGASVKLSCKASGYTFTSYWINWVKQRPGQGLEWIGNIYPSDSYTNYNQKFKDKATLTVDKSSSTAYMQLSSPTSEDSAVYYCTRSWRGNSFDYWGQGTTLTVSSASTKGPSVFPLAPSSKSTSGGTAALGCLVKDYFPEPVTVSWNSGALTSGVHTFPAVLQSSGLYSLSSVVTVPSSSLGTQTYICNVNHKPSNTKVDKKVEPKSCDKTHTCPPCPAPPVAGPSVFLFPPKPKDTLMISRTPEVTCVVVDVSHEAPEVQFNWYVDGVEVHNAKTKPREEQFNSTFRVVSVLTVVHQDWLNGKEYKCKVSNKGLPAPIEKTISKTKGQPREPQVYTLPPCRDELTKNQVSLWCLVKGFYPSDIAVEWESNGQPENNYKTTPPVLDSDGSFFLYSKLTVDKSRWQQGNVFSCSVMHEALHNHYTQKSLSLSPGK
heavy 2: not shown
notes: CSBODY structure: two 175D10 Fab arms; second heavy chain (first heavy entry) and first heavy chain with anti-CD3 scFv (L2K) between CH1 and Fc2
B3: IMAB362 monoclonal antibody (antibody, human IgG1, kappa, V domains shown)
VH: QVQLQQPGAELVRPGASVKLSCKASGYTFTSYWINWVKQRPGQGLEWIGNIYPSDSYTNYNQKFKDKATLTVDKSSSTAYMQLSSPTSEDSAVYYCTRSWRGNSFDYWGQGTTLTVSS
VL: DIVMTQSPSSLTVTAGEKVTMSCKSSQSLLNSGNQKNYLTWYQQKPGQPPKLLIYWASTRESGVPDRFTGSGSGTDFTLTISSVQAEDLAVYYCQNDYSYPFTFGSGTKLEIKR
notes: prepared by Wuhan YZY Biopharma; also called Anti-CLDN18.2 monoclonal antibody IMAB362
B4: bispecific antibody Y6 (bispecific antibody, human IgG1, kappa)
light: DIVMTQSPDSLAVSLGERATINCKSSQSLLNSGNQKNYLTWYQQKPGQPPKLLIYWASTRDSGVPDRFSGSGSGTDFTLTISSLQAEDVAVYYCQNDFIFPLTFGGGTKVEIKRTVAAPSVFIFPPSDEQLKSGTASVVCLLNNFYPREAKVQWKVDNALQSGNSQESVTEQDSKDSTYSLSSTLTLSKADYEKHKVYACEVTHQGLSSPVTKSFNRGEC
heavy: QVQLQESGPGLVKPSETLSLTCTVSGFSLTRYGVSWIRQPPGKGLEWIGVIWGEGNTNYNPSLKSRVTISKDSSKSQVSLKLSSVTAADTAVYYCARVNFGNALDYWGQGTLVTVSSASTKGPSVFPLAPSSKSTSGGTAALGCLVKDYFPEPVTVSWNSGALTSGVHTFPAVLQSSGLYSLSSVVTVPSSSLGTQTYICNVNHKPSNTKVDKKVEPKSCDKTHTCPPCPAPPVAGPSVFLFPPKPKDTLMISRTPEVTCVVVDVSHEAPEVQFNWYVDGVEVHNAKTKPREEQFNSTFRVVSVLTVVHQDWLNGKEYKCKVSNKGLPAPIEKTISKTKGQPREPQVYTLPPCRDELTKNQVSLWCLVKGFYPSDIAVEWESNGQPENNYKTTPPVLDSDGSFFLYSKLTVDKSRWQQGNVFSCSVMHEALHNHYTQKSLSLSPGK
chain: QVQLVESGGGVVQPGRSLRLSCAASGFTFSTYAMNWVRQAPGKGLEWVARIRSKYNNYATYYADSVKDRFTISRDDSKNTLYLQMNSLRAEDTAVYYCARHGNFGNSYVSWFAYWGQGTLVTVSSGGGGSGGGGSGGGGSQTVVTQEPSLTVSPGGTVTLTCRSSTGAVTTSNYANWVQQKPGQAPRGLIGGTNKRAPGVPARFSGSLLGGKAALTLSGVQPEDEAEYYCALWYSNLWVFGGGTKVEIKGRGRGSDKTHTCPPCPAPPVAGPSVFLFPPKPKDTLMISRTPEVTCVVVDVSHEAPEVQFNWYVDGVEVHNAKTKPREEQFNSTFRVVSVLTVVHQDWLNGKEYKCKVSNKGLPAPIEKTISKTKGQPREPQVCTLPPSRDELTKNQVSLSCAVKGFYPSDIAVEWESNGQPENNYKTTPPVLDSDGSFFLVSKLTVDKSRWQQGNVFSCSVMHEALHNHYTQKSLSLSPGK
notes: YBODY structure: anti-CLDN18.2 Fab arm (2C6.9) and second monomer anti-CD3 scFv (2a5)-Fc
B5: bispecific antibody Y8 (bispecific antibody, human IgG1, kappa)
light: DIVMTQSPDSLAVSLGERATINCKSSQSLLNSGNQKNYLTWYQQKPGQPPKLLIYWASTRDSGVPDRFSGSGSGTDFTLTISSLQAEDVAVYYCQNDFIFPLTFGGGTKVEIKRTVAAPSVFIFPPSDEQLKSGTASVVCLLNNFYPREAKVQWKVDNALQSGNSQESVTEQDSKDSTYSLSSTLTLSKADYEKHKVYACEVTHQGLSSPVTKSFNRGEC
heavy: QVQLQESGPGLVKPSETLSLTCTVSGFSLTRYGVSWIRQPPGKGLEWIGVIWGEGNTNYNPSLKSRVTISKDSSKSQVSLKLSSVTAADTAVYYCARVNFGNALDYWGQGTLVTVSSASTKGPSVFPLAPSSKSTSGGTAALGCLVKDYFPEPVTVSWNSGALTSGVHTFPAVLQSSGLYSLSSVVTVPSSSLGTQTYICNVNHKPSNTKVDKKVEPKSCDKTHTCPPCPAPPVAGPSVFLFPPKPKDTLMISRTPEVTCVVVDVSHEAPEVQFNWYVDGVEVHNAKTKPREEQFNSTFRVVSVLTVVHQDWLNGKEYKCKVSNKGLPAPIEKTISKTKGQPREPQVYTLPPCRDELTKNQVSLWCLVKGFYPSDIAVEWESNGQPENNYKTTPPVLDSDGSFFLYSKLTVDKSRWQQGNVFSCSVMHEALHNHYTQKSLSLSPGK
chain: not shown
notes: YBODY structure: anti-CLDN18.2 Fab arm (2C6.9) and second monomer anti-CD3 scFv (L2K)-Fc
B6: bispecific antibody Y1 (bispecific antibody, human IgG1, kappa)
light: DIVMTQSPSSLTVTAGEKVTMSCKSSQSLLNSGNQKNYLTWYQQKPGQPPKLLIYWASTRESGVPDRFTGSGSGTDFTLTISSVQAEDLAVYYCQNDYSYPFTFGSGTKLEIKRTVAAPSVFIFPPSDEQLKSGTASVVCLLNNFYPREAKVQWKVDNALQSGNSQESVTEQDSKDSTYSLSSTLTLSKADYEKHKVYACEVTHQGLSSPVTKSFNRGEC
heavy: QVQLQQPGAELVRPGASVKLSCKASGYTFTSYWINWVKQRPGQGLEWIGNIYPSDSYTNYNQKFKDKATLTVDKSSSTAYMQLSSPTSEDSAVYYCTRSWRGNSFDYWGQGTTLTVSSASTKGPSVFPLAPSSKSTSGGTAALGCLVKDYFPEPVTVSWNSGALTSGVHTFPAVLQSSGLYSLSSVVTVPSSSLGTQTYICNVNHKPSNTKVDKKVEPKSCDKTHTCPPCPAPPVAGPSVFLFPPKPKDTLMISRTPEVTCVVVDVSHEAPEVQFNWYVDGVEVHNAKTKPREEQFNSTFRVVSVLTVVHQDWLNGKEYKCKVSNKGLPAPIEKTISKTKGQPREPQVYTLPPCRDELTKNQVSLWCLVKGFYPSDIAVEWESNGQPENNYKTTPPVLDSDGSFFLYSKLTVDKSRWQQGNVFSCSVMHEALHNHYTQKSLSLSPGK
chain: QVQLVESGGGVVQPGRSLRLSCAASGFTFSTYAMNWVRQAPGKGLEWVARIRSKYNNYATYYADSVKDRFTISRDDSKNTLYLQMNSLRAEDTAVYYCARHGNFGNSYVSWAAYWGQGTLVTVSSGGGGSGGGGSGGGGSQTVVTQEPSLTVSPGGTVTLTCRSSTGAVTTSNYANWFQQKPGQAPRGLIGGTNKRAPGVPARFSGSLLGGKAALTLSGVQPEDEAEYYCALWYSNLWVFGGGTKVEIKGRGRGSDKTHTCPPCPAPPVAGPSVFLFPPKPKDTLMISRTPEVTCVVVDVSHEAPEVQFNWYVDGVEVHNAKTKPREEQFNSTFRVVSVLTVVHQDWLNGKEYKCKVSNKGLPAPIEKTISKTKGQPREPQVCTLPPSRDELTKNQVSLSCAVKGFYPSDIAVEWESNGQPENNYKTTPPVLDSDGSFFLVSKLTVDKSRWQQGNVFSCSVMHEALHNHYTQKSLSLSPGK
notes: YBODY structure: anti-CLDN18.2 Fab arm (175D10) and second monomer anti-CD3 scFv (2a5ga)-Fc

Experiments:
Human CLDN18.2 [1] = molecular target: T1, Human CLDN18.2 (human); assay: flow cytometry, NUGC4-hCLDN18.2 cells
T1 construct: the cell line is named under assay; also called hCLDN18.2; human CLDN18.2 antigen
Description: (§1) NUGC4 and NUGC4-hCLDN18.2 cells were cultured, digested with pancreatin and centrifuged to collect cells. The cells were collected and resuspended in buffer (PBS+1% FBS) at 1×10⁴ cells/well in a 96-well plate at 100 μL per well. Then the mixture was centrifuged at 350×g for 5 min, and the supernatant was removed.

Human CLDN18.2 [2] = molecular target: T1, Human CLDN18.2; assay: cell-based or functional assay
Human CLDN18.2 [3] = molecular target: T1, Human CLDN18.2; assay: cell-based or functional assay; remark: listed apart in the source
human CD3 antigen = molecular target: T2, human CD3 antigen (human, UniProt P07766 23-126); assay: SPR (Biacore T200), human CD3 antigen amine-coupled on CM5 chip, 1:1 fit
T2 construct: also called Human CD3ϵ
Description: After the detection was completed, data fitting was carried out on the result pattern by adopting Biacore T200 Evaluation Software in a 1:1 binding fitting mode to obtain an equilibrium dissociation constant (KD).

Human CLDN18.2 [4] = molecular target: T1, Human CLDN18.2; assay: cell-based or functional assay; remark: listed apart in the source
Human CLDN18.2 [5] = molecular target: T1, Human CLDN18.2; assay: flow cytometry, NUGC4-hCLDN18.2 cells; remark: listed apart in the source
Description: as §1

Human CLDN18.1 = molecular target: T3, Human CLDN18.1 (human, UniProt P56856 1-261); assay: flow cytometry, 293T-hCLDN18.1 cells
T3 construct: also called hCLDN18.1

Human CLDN18.2 [6] = molecular target: T1, Human CLDN18.2; assay: flow cytometry, NUGC4 cells (endogenous CLDN18.2)
Description: as §1

Row | Binder | EC50 (Human CLDN18.2 [1]) | EC50 (pM), in vitro killing by hPBMC, NUGC4-hCLDN18.2 cells (Human CLDN18.2 [2]) | Induction of expression of CD25 EC50 (pM), NUGC4 (Human CLDN18.2 [3]) | Induction of expression of CD25 EC50 (pM), NUGC4-hCLDN18.2 (Human CLDN18.2 [3]) | Induction of expression of CD69 EC50 (pM), NUGC4 (Human CLDN18.2 [3]) | Induction of expression of CD69 EC50 (pM), NUGC4-hCLDN18.2 (Human CLDN18.2 [3]) | Kd (human CD3 antigen) | EC50 value for killing effect on NUGC4-hCLDN18.2 cells (Human CLDN18.2 [4]) | EC50 (Human CLDN18.2 [5]) | binding result (Human CLDN18.1) | EC50 (Human CLDN18.2 [6]) | EC50 (pM), in vitro killing by hPBMC, NUGC4 cells (Human CLDN18.2 [2])
1 | B1 | 36 nM | 2.17 pM | 216 pM | 1.21 pM | 29.5 pM | 0.389 pM | 3.1 nM |  |  |  |  | 
2 | B2 |  |  |  |  |  |  |  | < 0.01 nM | < 50 nM | no binding |  | 
3 | B3 |  |  |  |  |  |  |  |  | 10.8 nM |  |  | 
4 | B4 | 45.9 nM | 1.07 pM | 17.2 pM | 2.32 pM | 4.87 pM | 0.592 pM | 5.77 nM |  |  |  | 184 nM | 7.99 pM
5 | B5 | 46.9 nM | 4.09 pM | 182 pM | 16.5 pM | 33.3 pM | 2.98 pM |  |  |  |  | 75.1 nM | 57.8 pM
6 | B6 |  |  |  |  |  |  | 1980 nM |  |  |  |  | 
